The data set is described as follows: soluble on expression in E. coli; label from the status in PepcDB or PDB records.
As to “MDTHKVFVNRIINMRKIKLIGLDMDHTLIRYNSKNFESLVYDLVKERLAESFHYPEEIKKFKFNFDDAIRGLVIDSKNGNILKLSRYGAIRLSYHGTKQISFSDQKKIYRSIYVDLGDPNYMAIDTSFSIAFCILYGQLVDLKDTNPDKMPSYQAIAQDVQYCVDKVHSDGTLKNIIIKNLKKYVIREKEVVEGLKHFIRYGKKIFILTNSEYSYSKLLLDYALSPFLDKGEHWQGLFEFVITLANKPRFFYDNLRFLSVNPENGTMTNVHGPIVPGVYQGGNAKKFTEDLGVGGDEILYIGDHIYGDILRLKKDCNWRTALVVEELGEEIASQIRALPIEKKIGEAMAIKKELEQKYVDLCTRSIDESSQQYDQEIHDLQLQISTVDLQISRLLQEQNSFYNPKWERVFRAGAEESYFAYQVDRFACIYMEKLSDLLEHSPMTYFRANRRLLAHDIDIAAALEHHHHHH”, the “soluble on expression in E. coli” value is on record as “soluble”.

As to “MDTIAFAYMGGKEYEWLFFEVYDRVRRFYRDVRLPINIVYAGKIILPPGTLIRVETASGFVNMYSFEAVVEALYGKLVEMRDDVNDDSITKIFGITTFPIGSRDRYFDIYKKYLGIQVNVGDYHVLALSIKPFFTENKYLFIERVFKGVLHEIGHLYGLSHCHEDCVMNPPKDIKDWDLRTPTYCNTCLRKLKNKEELMPKLQLLEHHHHHH”, the “soluble on expression in E. coli” value is “soluble”.

As for “MDTLQNMRAFSSVAQAGSFTAAAAVLDTTTANVSRAVSNLEAHLQTRLLNRTTRRIALTEAGKRYLLRCEQILASVEEAEAEASDAHARPAGQLKVHSMPGVGQHYVIDAIARYRRNHPDVAFDLTMTHRVPDLLEEGFDVSIVLASELADSGFVSQRLGITYSIVCASPEYVKTFGMAHKPADLLNHACLRLVSPVFPLDKWLFDGPEGQEMVTINSSPLLVNSADAMKTAISSGMGIGILPIYSAIEGLRNGTLVRVLSDYRSQELNLYAIYPSRQYLDAKIRTWVEYLRGSLPEILAADEADLHVQALKASC”, the “soluble on expression in E. coli” value was “not soluble”.

Consider “MDTQKLIEVLAREVLKEIAKRENQKLSENNEIISKKSVVTAFLGNDEVLKDELKKEASFMENIKLDSTWEEIGQCENKKRLVVSTLGINELIELSQGRKSVITEFLFNDGEVVLVEEGLEYKKYTKPAALINLYDGYLDKVREFGIKVVKRTEVKNVFCTKEKVYLKGLVTERRLRKLKLKNQTLEVDAKSKITSLAMDYIKENSIELCYERRQ”, for which the “soluble on expression in E. coli” value is on record as “not soluble”.

On to “MDTSKIVGEKIKALREDKSISIEELAQRSGLAIEQIERIENNIDIPSLAPLIKIARVLGVRLGTFLDDQDEIGPVVCRKKEAKDAISFSNNAIHSRKHMEYHSLSKSKADRHMEPFIIDVMPTEDSDFVLSSHEGEEFIMVMEGVMEISYGKNTYLLEEGDSIYYDSIVPHHVHAYEGQAAKILAVVYTPI”, for which the “soluble on expression in E. coli” value is “not soluble”.

For the sequence “MDVSYYDGPKDEVAEAMLKSAVTAMRLGQYEDGKGRLEEIMEFGTSNFQLLGTIYMYYGRVCRHLNHDAKALEFFEHELNMFKLIFNYPEACDSTRRIVEQALKMGKFPKARRFAEDLIDYTSNKKNGEKYIGQARILFASVCLEGCERDVESNQDEKKKLLSICAEQIAAVKLFNENNTEGAVSETKIMLLEAKCLSLDEKYEESRRKYQECIDFAIKTDQFEAVHIAYYDKALYAETDLLFFIIRDLRSALFYATKFGKERDVVKYKSKLSEEMLRNGEFHEAYLYGLEALVSIRKLGLNEYIGDVLLTIAKCLIALGKRRQAAYFIILGSVLTINQNSFKLFYEQIDVAMNQERSETATDQDVCLAIDSSPDPTSSNDMINKFVVELEHATNVETWEMIVNGIIDDQKKPVAIEKKENEEPVDMMDLIFSMSSRMDDQRTELPAARFIPPRPVSSASKKTTKSHRILPGLRANWTKVQSMKFDGHTMNRILKRSKKSKSSLDSTNSMQGDDTRSDDVTMTSK”, the “soluble on expression in E. coli” value is “not soluble”.

Turning to “MDWHCVSPDGCERSEELQRIDRAYSTDYEWEFASTVDDSFEEYAMRILTDSLGSGCAWLYDLTLLGYNLQRSRQCYTVAGFELELSIPNEDPATFSEWVVVGRDIDVLGEE”, the “soluble on expression in E. coli” value is recorded as “not soluble”.

For “MDYCCVGRNNNDSVPREVTLLRVKTLMKMANHPRPGDIIQESLDELNVSLREFARAMEIAPSTASRLLTGKAALTPEMAIKLSVVIGSSPQMWLNLQNAWSLAEAEKTVVVSRLRRLVTQ”, the “soluble on expression in E. coli” value is reported as “not soluble”.

Take “MEAASIAVPGAGASLRAQALDALMTPAWADKLAAVAAIDAGAPVGAQQDLAEPAGLLGRPPAPQLVPPSQVRQRSVQSPEGRAALLHALAHIEFNAINLALDAVWRYGGLPDAYYLDWLKVAREEAYHFDLLNRHLSGLGHAYGDFPAHNGLWEMAEKTRADLLARLALVPRTLEARGLDASPLIRDKLAAAGDADGAAILEIILRDEIGHVAIGNHWYKALCAQRGLDPVAQYAQLASRYGAPRLRGPFNLEARRAAGFDEDELRALLQALEHHHHHH”: the “soluble on expression in E. coli” value is recorded as “not soluble”.

As to “MEAHGSARLSRKRKRDGSNGEPEEGEKPLKFKRCTVGLKYPAPYADQLESMEDKQYQRVTIEEARRGTPPDRPVRVYADGIFDMFHSGHARALMQAKCLFPNTHLIVGVCSDDLTHKLKGFTVMNEDERYDAVSHCRYVDEVVRNAPWTLTPEFLTKHRIDFVAHDDIPYSSADSDDVYKHIKDAGMFAPTQRTEGISTSDIITRIVRDYDVYVRRNLQRGYTAKELNVSFINEKKYNLQERVDKVKKKVKDVEEKSKEFVQKVEEKSIDLIQKWEEKSREFIGNFLQMFGPEGALKHMLKEGKGRMLQAISPRQSPSSSPTRERSPSPTFRLPFFNKTSTPSSPSSHHSSALSGYTYAARGQAISEDEEDDED”, the “soluble on expression in E. coli” value is reported as “soluble”.

Consider “MEALNKKLFRLNSKEKIQKSTGTFVPDLPNGSFLKENGSMELLNDYFFKNKDIYISKHNRFADYPYHTHQFLELNYMYSGSSEQVIEGNKETLHEGELLLLDSACHHSIKATGEKDILINILFRDQQISLEWLTSIKKKNSLLFDFLLHSSVSEQSLKKYIIFQSAQIPHIQQFLNQIITEYFLEEEFSSRIITLYLPILFTELVRKCDTYLADDLTSAQSSTTSTMLEVIKLIESNYRTITLTSAADTLGYNKNYLSNFIKKNTNFTFTELVNKQKMLAANLLIETTSTPIELIIEKVGFSNKTYFYSLYKKTFNLLPNEVRNKK”, for which the “soluble on expression in E. coli” value is “not soluble”.

In the case of “MEALRSAPRAAHFLPMELQSSGERSPPREGAPVGTGATAGETPSAAPSGTPLWIPPRLATLDEVTLCHNIHRYRCFIEEGTALLPPLKTDVYCNGKTSSIATRLSVGAVVDAARRALSGSPAFAFCLVRPPGHHASADTPSGFCLVNNVAIAAMQLLQDWHVKYDCGVGGSRSVPSEERDIPERPRIAIVDIDVHHGEGTQSFVEVEPQLLYLSLHRYDRGSFYPCDPAGATSYVGQHRNICNVAVDTAATDPARCEEVISDMLFARVVDDVFLPRLEQFHPNIILLSLGFDAAHGDPLGRMAVEGGFAYVVRALKRFCLQSQGTIGLVAVLEGGYSPEGVSRGVVSVAHALCYPFDDVAVVNYARLRTPKTWMELRSRLSRRMEVRTDETGGATSLSSGLSSQGLGDATSTERAIAD”, the “soluble on expression in E. coli” value is on record as “not soluble”.

Regarding “MEATNKMKVEVWSDIMCPFCYIGKRNYEAGLKQFADSNNIEIIWKSFQLDPNIPQDTAVTENVYQYLAERKGMSYEQSVQMHDSVVATAKKAGLDYNFDKAVIANSFNAHRMIQLAKTKDLGDAAEERLFYAYFTEGKNVGNSYVLIELGKDIGLTEAEVQTALTDDTYAYKVRQDVEEAQHLGVRGVPFFVFDRKYAVSGAQPPQAFLETLEKSFSEWRKEHPASPFEVSEGPSCSVDGCD”, the “soluble on expression in E. coli” value is reported as “not soluble”.

For “MEDYLVKALCYKGSIRAYAISATETVSEAQRRHDTWSSSTAALGRTLIGALLLGATLKGDDKLTVKVQGNGPAGAIIVDSNGRGETKGYIKNPHVSLKLNATGKIDVRGAVGNEGIFTVIKDLGLKETFSGQTPIVSGEIGEDFTYFMAVSEQVPSAIGLGVLVDTDESVKAAGGFMIQVMPGADESTIDFIEQRLAEVPPISQLLENGETPEQVLYRLLGEDEVEILEKMPVQFKCDCSKEKFATALIAVGIDELNAMIDEDHGAEAVCQFCNNKYHYSEEELIELRDEAIRNTKQK”, the “soluble on expression in E. coli” value was “not soluble”.

Take “MEEAKNMALLFFMDHLMQKNGRRTIHDLSCQFGARGFSEEMRNAVGTTQEGLTEFLQGHPSLFTVEGDQVILNGHNDLNAKNNPLLQSGIRSRNYEKEAVDFFVTKLTKFGPELQIKSLLGHRSQAAPEVRLVSGRHLKEFCEFLQSQVDYFVVEGDRVRLKNMPEPDENAIEMDDEGRPLAGVKAKQAAVEYLKSVLEQNEDQPIPLDQFYQNFCQRFSHTIRQDVATNPKELLQFLKLNRGLFFIRSNKVSLVKNRLNEDGSENGSDEGEETNNNGMFPLDQSALTRIHFVKALKPAQDLISRLWQDINNMEKKVVGLDLKTVTVGVDGEIFLSLGVIATTSQIGIFDLASSDVIILESGFKGILESEKVVKVIHDARRVASLLAHKYAVHMRNVFDTQVAHSLLQHEKFNKSLNEMRPISFINLQRVYYPQSIMLSDVTPRKMSMCPNWGVRPITEEFQLTIVEEAHCLLSALYQSLSNLIPVHLRGVFEDKCIEVNHPEVLLASPNRPPPQPFISSPYRASTRRDVRNGGSIMQSFSPAPYAAAPRPQMSDACTQTFSTGDIEVLNVFYE”: the “soluble on expression in E. coli” value was “not soluble”.

With “MEEHPRAWIISVGNELLIGRTINTNAAWLGSRLTLLGFEVERVVTVPDRVEDIAEEVGRALGRARVVITTGGLGPTYDDVTLQGVAMALGRGLKLHPGALEMVRRFYSKRGLGLTEDRVKMAMLPDGAEPLENPVGAAPGAVVEARGSLVASLPGVPSEMEAMFEKALRPLLEEIAPPGAVVECGIAVVGVPESSLAPYIKEASRVSPRVYVKSHPQGSEIGKPLVRVRVLARASTLEEARAEALKALEKVRRGVEELGGSISEEDSC”, the “soluble on expression in E. coli” value is “soluble”.

As for “MEEHYYVSIDIGSSSVKTIVGEKFHNGINVIGTGQTYTSGIKNGLIDDFDIARQAIKDTIKKASIASGVDIKEVFLKLPIIGTEVYDESNEIDFYEDTEINGSHIEKVLEGIREKNDVQETEVINVFPIRFIVDKENEVSDPKELIARHSLKVEAGVIAIQKSILINMIKCVEACGVDVLDVYSDAYNYGSILTATEKELGACVIDIGEDVTQVAFYERGELVDADSIEMAGRDITDDIAQGLNTSYETAEKVKHQYGHAFYDSASDQDIFTVEQVDSDETVQYTQKDLSDFIEARVEEIFFEVFDVLQDLGLTKVNGGFIVTGGSANLLGVKELLSDMVSEKVRIHTPSQMGIRKPEFSSAISTISSSIAFDELLDYVTINYHDNEETEEDVIDVKDKDNESKLGGFDWFKRKTNKKDTHENEVESTDEEIYQSEDNHQEHKQNHEHVQDKDKDKEESKFKKLMKSLFE”, the “soluble on expression in E. coli” value is given as “not soluble”.

With “MEEKKALRNRIKKLLRSQPEQQRKEGSQRVADILFSLPEWNEAHAIGITISLPHEVQTELIISRGWEEGKQIAVPRVKKGTTQMTFYEIHSFSVLEDTFFGLREPKPSECRQIDGQELDLLLVPGVAFDQKGNRLGYGGGYYDRFLHSYKGKTIALAYSQQLVESVPTDERDERVQMIVTERGVYRLEHHHHHH”, the “soluble on expression in E. coli” value was “soluble”.

For the sequence “MEETKRLQKVYQLFAESTTERIPTDRLVDVLRFAGYIISESYIGELLSSIPGETLDFGQLVDVCERIREREITREELQNSFRRLDVDNTSYIDAGRLVQILSSGENRFSDEEIEELLNILNPDGDGKICYDLVIKNIFGY”, the “soluble on expression in E. coli” value is listed as “not soluble”.

On to “MEFAKMCFEKLYGVDTSEAKEMYNSVYDVMKAMLKEYTVIFKGPNTQSSQSNPPSSTAARDIFACELAEDSNVEFERMDRSYKEMVNEIRVTDPKDELDIYLKAEVENPKTLPGMEWDVLSWWRLNSQKYPVLSEIARDVLAMQVSYVASESAFSTSGRLLEPSRSCLTHYMVETLVCLEQWLKSEIKLSENTFLTNTQLLADIELLDKLEKGNFIYVVY”, for which the “soluble on expression in E. coli” value is given as “soluble”.

As to “MEFGRNPLSMTSTKPTLLNVLDDVGEAALHAIPKVDDITSHKIYVIAVQPVSFSDIESQAVKQDASSPNNCCCSCMHGVLRFFAELCCNCCAGCVQGICQG”, the “soluble on expression in E. coli” value is on record as “not soluble”.
